Experimental data as given in the supplement of paper PMC9112550, “Optimization of the antimicrobial peptide Bac7 by deep mutational scanning” (BMC Biology, 2022).

Each sequence was assayed on Escherichia coli TOP10 (assay: shrunken log2 fold change of peptide-encoding DNA abundance (4.5 h post-induction vs induction); higher = less antimicrobial activity (less host growth inhibition)). Conditions: time post-induction: 4.5 h; library: site-saturation at positions 5, 18, 19, 20.
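Note: peptides expressed intracellularly from a pBAD plasmid library in pooled LB shake-flask culture, induced with 0.3% L-arabinose, DNA abundance read by NGS, three biological replicates, DESeq2 with apeglm shrinkage.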

Sequence	shrunken log2 fold change
RRIRRRPPRLPRPRPRPCHEPRP	-0.0891
RRIRRRPPRLPRPRPRPCKCPRP	-0.01
RRIRRRPPRLPRPRPRPCKFPRP	0.123
RRIRRRPPRLPRPRPRPCLCPRP	-0.00345
RRIRRRPPRLPRPRPRPCLGPRP	-0.0846
RRIRRRPPRLPRPRPRPCLMPRP	0.434
RRIRRRPPRLPRPRPRPCNMPRP	-0.152
RRIRRRPPRLPRPRPRPCNNPRP	-0.368
RRIRRRPPRLPRPRPRPCPMPRP	-0.0862
RRIRRRPPRLPRPRPRPCQEPRP	0.139
RRIRRRPPRLPRPRPRPCQRPRP	0.0494
RRIRRRPPRLPRPRPRPCRNPRP	0.0376
RRIRRRPPRLPRPRPRPCTNPRP	0.0186
RRIRRRPPRLPRPRPRPCVRPRP	0.11
RRIRRRPPRLPRPRPRPCWCPRP	-0.138
RRIRRRPPRLPRPRPRPCWWPRP	0.261
RRIRRRPPRLPRPRPRPDAKPRP	0.644
RRIRRRPPRLPRPRPRPDCAPRP	0.345
RRIRRRPPRLPRPRPRPDDPPRP	-0.0033
RRIRRRPPRLPRPRPRPDETPRP	0.745
RRIRRRPPRLPRPRPRPDGFPRP	0.14
RRIRRRPPRLPRPRPRPDHEPRP	0.152
RRIRRRPPRLPRPRPRPDHKPRP	0.027
RRIRRRPPRLPRPRPRPDINPRP	-0.243
RRIRRRPPRLPRPRPRPDKAPRP	-0.131

Sequence	shrunken log2 fold change
RRIRRRPPRLPRPRPRPDKKPRP	0.0135
RRIRRRPPRLPRPRPRPDLCPRP	0.00591
RRIRRRPPRLPRPRPRPDLSPRP	-0.0391
RRIRRRPPRLPRPRPRPDLVPRP	0.0743
RRIRRRPPRLPRPRPRPDMPPRP	-0.0169
RRIRRRPPRLPRPRPRPDNPPRP	-0.582
RRIRRRPPRLPRPRPRPDNRPRP	0.0484
RRIRRRPPRLPRPRPRPDPPPRP	0.443
RRIRRRPPRLPRPRPRPDPTPRP	0.77
RRIRRRPPRLPRPRPRPDPYPRP	0.175
RRIRRRPPRLPRPRPRPDTAPRP	-0.0709
RRIRRRPPRLPRPRPRPDVMPRP	0.195
RRIRRRPPRLPRPRPRPDYEPRP	-0.115
RRIRRRPPRLPRPRPRPEAHPRP	0.171
RRIRRRPPRLPRPRPRPEAIPRP	0.445
RRIRRRPPRLPRPRPRPEAQPRP	0.253
RRIRRRPPRLPRPRPRPEDFPRP	0.117
RRIRRRPPRLPRPRPRPEETPRP	0.244
RRIRRRPPRLPRPRPRPEFLPRP	0.441
RRIRRRPPRLPRPRPRPEGWPRP	3.17
RRIRRRPPRLPRPRPRPEHEPRP	0.0952
RRIRRRPPRLPRPRPRPEHQPRP	0.25
RRIRRRPPRLPRPRPRPEITPRP	0.0455
RRIRRRPPRLPRPRPRPEKGPRP	-0.0235
RRIRRRPPRLPRPRPRPEKIPRP	0.164

Sequence	shrunken log2 fold change
RRIRRRPPRLPRPRPRPEMYPRP	0.0119
RRIRRRPPRLPRPRPRPENLPRP	0.0548
RRIRRRPPRLPRPRPRPENRPRP	0.0232
RRIRRRPPRLPRPRPRPEPDPRP	0.879
RRIRRRPPRLPRPRPRPEQNPRP	0.849
RRIRRRPPRLPRPRPRPERFPRP	0.293
RRIRRRPPRLPRPRPRPERIPRP	0.0278
RRIRRRPPRLPRPRPRPERQPRP	0.522
RRIRRRPPRLPRPRPRPERSPRP	0.0187
RRIRRRPPRLPRPRPRPESLPRP	0.0493
RRIRRRPPRLPRPRPRPETDPRP	-0.00744
RRIRRRPPRLPRPRPRPETEPRP	0.783
RRIRRRPPRLPRPRPRPETIPRP	0.175
RRIRRRPPRLPRPRPRPETNPRP	0.596
RRIRRRPPRLPRPRPRPEWVPRP	0.344
RRIRRRPPRLPRPRPRPEYAPRP	0.0407
RRIRRRPPRLPRPRPRPEYSPRP	-0.265
RRIRRRPPRLPRPRPRPEYYPRP	-0.324
RRIRRRPPRLPRPRPRPFANPRP	0.00652
RRIRRRPPRLPRPRPRPFASPRP	-0.0314
RRIRRRPPRLPRPRPRPFENPRP	0.0967
RRIRRRPPRLPRPRPRPFFNPRP	-0.0577
RRIRRRPPRLPRPRPRPFHEPRP	-0.195
RRIRRRPPRLPRPRPRPFHSPRP	0.00922
RRIRRRPPRLPRPRPRPFIPPRP	-0.506
